Experiments:
Format in all cases: physicochemical
[1] = Thioflavin T fluorescence (aggregation / mature fibril formation); details: 25 µM fibrils (Aβ42WT) or SEC-eluted mutant oligomers, 5 µM ThT, 2 h incubation, excitation 440 nm, emission 480 nm, 25°C
Description: Thioflavin T fluorescence was used to assess aggregation and mature fibril formation as β-sheet content is directly correlated with fluorescence intensity of the dye.
(§1) Mean residue ellipticity (θ) was determined according to the equation θ = θObs • MRW/(10 • l • c); where θObs is observed ellipticity, MRW is mean residue weight of the peptide, c is peptide concentration (g/L), and l is optical path length (cm). The thioflavin T (ThT) binding studies of Aβ42WT and mutant peptides were carried out by incubating precipitated fibrils of the Aβ42WT or eluted oligomer preparation from the SEC column. The 25 µM amyloid fibrils (Aβ42WT) or oligomers of mutant were mixed with 5 µM of ThT dye concentration. After 2 h incubation, the fluorescence of the sample solutions were recorded by exciting at 440 nm and the intensity at 480 nm is monitored using Perkin-Elmer LC 55B spectrofluorimeter. The bandwidths of excitation/emission wavelengths were 5 nm/each.

[2] = Circular dichroism spectroscopy (conformation / fibril development)
Description: Conformational analyses of the mutant and Aβ42WT peptides were also carried out by Circular Dichroism (CD) spectroscopy.
The fibrils from the Aβ42WT preparation were centrifuged at 12000 rpm for 15 min to separate from any remaining monomer and the pellet was re-suspended in 10 mM phosphate pH 7.2 for CD measurement. CD measurements were performed using a 0.1 mm path length quartz cell in an Aviv 62A DS Circular Dichroism spectrometer (Aviv Associates, Lakewood, NJ) at 22°C.
as §1, with “The” for “Mean residue ellipticity (θ) was determined according to the equation θ = θObs • MRW/(10 • l • c); where θObs is observed ellipticity, MRW is mean residue weight of the peptide, c is peptide concentration (g/L), and l is optical path length (cm). The”

[3] = Atomic force microscopy of peptide preparations; details: 25 µM peptide adsorbed 10 min onto silicon wafers, tapping mode
Description: High-resolution analysis of the peptide solution preparations were carried out using atomic force microscopy (AFM).
AFM topography images were acquired in the light tapping mode regime using a Multimode AFM (Veeco, USA). Resonant frequencies of the uncoated silicon tips (MikroMasch, USA) were roughly 150 kHz, with scan rates around 5–8 µm/s. Peptide samples were prepared using the protocol described above and diluted to 25 µM before application. Peptide solutions were adsorbed by incubating onto Pirahna cleaned silicon wafers with molecular smoothness (∼1 Å RMS roughness) as determined by AFM. After incubating for 10 min, the wafers are gently washed repeatededly with MilliQ water.

[4] = One-dimensional 1H NMR of peptide preparations (soluble versus aggregated state); details: 10% DMSO/PBS
Description: All peptides were used as supplied. Solution samples of the peptides were prepared as follows. Peptides were dissolved in 1,1,1,3,3,3-hexafluoro-2-propanol (HFIP) to concentrations of 1 mM HFIP, evaporated over nitrogen, and then dried in a Savant Speed Vac for 1 hr. The resultant peptide films were further kept under vacuum for a few hours to remove solvent traces. The films were stored at −80°C until use. Peptide films were dissolved to ∼0.5 mM concentrations in 10% d6-DMSO/10 mM PBS buffer to a final pH of 7.2. The solutions were incubated at 4°C for 12 hours, and then transferred to 37°C for 4 hours. The resulting solutions were centrifuged at 13000 rpm in a desktop centrifuge (Eppendorf) at 4°C for 30 min to remove any precipitated gel-form of the peptides. After centrifugation, the peptide concentrations were adjusted to 0.4 mM (concentrations were checked by UV visible spectroscopy), 0.05% sodium azide added as a bacteriostat and transferred to 5 mm NMR tubes. […]
NMR spectra were acquired at the Stanford Magnetic Resonance Laboratory on a Bruker Avance 500 MHz spectrometer running TopSpin v1.3 and equipped with a 5 mm H{CN} Z-axis gradient CryoProbe. […] The data was processed in TopSpin and analyzed with SPARKY [38].

Aβ42WT: wild type form of Aβ42, recombinant purified, unlabeled and 15N-labeled, from rPeptide
Thioflavin T fluorescence of Aβ42WT compared to Aβ42Nle35p37 [1]: about four | conformation by CD spectrum ([2]; 0.1 mm path length cell, WT fibril pellet in 10 mM phosphate pH 7.2, mutant SEC-eluted): β-sheet rich, mature fibrils | period over which aggregate develops into β-sheet rich, mature fibrils (CD) ([2]; PBS buffer, absorbance at ∼220 nm): 12 h | mean globular structure height (AFM) [3]: 4.32 nm | species formed in preparation ([4]; 0.4 mM): formed fibrils | state in solution by 1D 1H NMR (amide/aromatic region) ([4]; pH 7.2, 25°C, samples prepared in the same manner): very little observable signal

Reference: PMC3142112, “Rationally Designed Turn Promoting Mutation in the Amyloid-β Peptide Sequence Stabilizes Oligomers in Solution” (PLoS ONE, 2011)
